In the supplement of paper PMC10724198 one finds protein stability index data, which are given here for 116 sequences.

± gives the standard deviation of the averaged measurements.
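Also: PSI is a weighted mean of sequencing reads over stability bins, variants kept only with over 10 reads, mCherry proximal and sfGFP distal, peptide attached via GGGS linker.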

The test system of the data set is Saccharomyces cerevisiae. As to the kind of experiment: protein stability index of tFT-peptide fusion (C-terminal peptide) (PSI (0-1 scale)); higher = more stable (slower turnover). To be noted: genetic background: wild type; temperature: 30 C.
In the case of IKKRDKAKKEYI, the protein stability index is 0.672 ± 0.0077. IKKSMKSLTRTE registered a protein stability index of 0.735 ± 0.015.

IKKYNEKRITKV: the protein stability index came out at 0.66 ± 0.045. With IKLKVKIQKENG the figure was 0.654 ± 0.021.

For IKNEEKKLIESQ, the protein stability index came out at 0.76 ± 0.073.

In the case of IKNEKKKKKNKK, the protein stability index turned out to be 0.7 ± 0.035. With IKNSCAGCTRDV the figure was 0.671 ± 0.035; with IKSKFILKTRPM, 0.691 ± 0.091. The sequence ILCTVVKTDSKE showed a protein stability index of 0.702 ± 0.081. With ILGGRIRLVGRK the figure was 0.708 ± 0.033; with ILLFLLPFSHRL, 0.658 ± 0.076; with ILLSHRLQVSSC, 0.564 ± 0.035. With ILPCSRYNILNV the figure was 0.659 ± 0.0078. Sequence ILSASSLFPFVS showed a protein stability index of 0.693 ± 0.053. With ILTCGARSSICD the figure was 0.639 ± 0.011; with ILYNIEKQQSSV, 0.683 ± 0.032. With IMTNGADRERYR the figure was 0.736 ± 0.034; with INARCNRTIVRP, 0.646 ± 0.021. INEEIVDMKRLL came in with a protein stability index of 0.697 ± 0.0095. With INKKKKEKKKVE the figure was 0.731 ± 0.023; with INKWNKRDGLFQ, 0.66 ± 0.03; with INPLAHCSISRS, 0.7086 ± 0.0066.

As for IPHHFSPPLPSP, the protein stability index turned out to be 0.772 ± 0.082. With IPPLPSSIPRSF the figure was 0.673 ± 0.022; with IPPLTKRPAPGG, 0.684 ± 0.099; with IPQTITLPHSNP, 0.694 ± 0.088.

As for IPSKHKPSRIPI, the protein stability index was 0.665 ± 0.014.

The sequence IQARAVRRSAII returned a protein stability index of 0.627 ± 0.0012. Turning to IQFKDKAVSETE, the protein stability index came out at 0.658 ± 0.021.

For the sequence IREFNLGTQIRY, the protein stability index was determined as 0.711 ± 0.035. For IRGCSGSDKNKS, the protein stability index was 0.643 ± 0.047. With IRKEKREKKSSH, the protein stability index was found to be 0.702 ± 0.069. IRKLDIIFLSES yielded a protein stability index of 0.827 ± 0.063. With IRRPSVTAIRPS the figure was 0.667 ± 0.08. With IRRRKRKRNQKP the figure was 0.708 ± 0.032.

Consider IRSLPYVGVFIE, for which the protein stability index came out at 0.587 ± 0.036. With ISEINQKGKNRE the figure was 0.675 ± 0.037; with ISFFLLYFPPSY, 0.59 ± 0.024. With ISKEIKKRLNRY the figure was 0.63 ± 0.055; with ISLLIFSPTLFS, 0.687 ± 0.035; with ISLRAPVRPECV, 0.709 ± 0.031. With ISLVMLLKDAWR the figure was 0.695 ± 0.019. Consider ISMPECDIVEEI, for which the protein stability index came to 0.707 ± 0.022. With ISPPAPTNLPTT the figure was 0.696 ± 0.043. With ISSKREITGSVA the figure was 0.694 ± 0.012; with ITALYVILTRRP, 0.6007 ± 0.0033; with ITGLRNSRFNRP, 0.652 ± 0.0068. ITHLFRSSIYSR returned a protein stability index of 0.683 ± 0.12. With ITNEQEMKRYDV the figure was 0.667 ± 0.013.

Take ITRKKLEISVDK: the protein stability index worked out at 0.685 ± 0.04. With ITTKLRVTRLLR the figure was 0.766 ± 0.13; with IVEERLFWKMWE, 0.659 ± 0.015.

The sequence IVFVLRPRRSRC registered a protein stability index of 0.65 ± 0.04. With IVNKRLKIRKKQ the figure was 0.658 ± 0.045. With IVRENGKDVGVG the figure was 0.506 ± 0.014; with IVRMLTCGVGWD, 0.581 ± 0.016; with IVSKESNVYIIK, 0.662 ± 0.053.

For the sequence IVVLMEADLAGC, the protein stability index was determined as 0.583 ± 0.02. With IWLAFCTLRPVS the figure was 0.591 ± 0.027. IWLSCCPLAFWS displayed a protein stability index of 0.6896 ± 0.0065. With IWRLLLPLPNPF the figure was 0.688 ± 0.019; with IYRTYEAKPGHP, 0.69 ± 0.12. With IYRWSGTVGGER the figure was 0.6971 ± 0.003; with IYVGAGCLGHTE, 0.717 ± 0.068.

KAGHEPRLTRKQ: the protein stability index turned out to be 0.667 ± 0.022. With KAGVGAFLEPRS the figure was 0.713 ± 0.064. With KAGVWLWVGGGG the figure was 0.739 ± 0.015; with KCDLTREDVVHR, 0.657 ± 0.01.

In turn, KDDEQESESKNN came in with a protein stability index of 0.667 ± 0.011. On to KDEWVQSHTNQV, for which the protein stability index is 0.671 ± 0.0083.

KDKEQKKIKKSI returned a protein stability index of 0.681 ± 0.13. Turning to KDKNPDARDDGG, the protein stability index was 0.705 ± 0.04. With KDRKKYIMTKPS the figure was 0.627 ± 0.051; with KDSSRHSPDPSR, 0.715 ± 0.086; with KEDKLLRSSEGF, 0.6886 ± 0.0029.

KEEGLKRAKGPQ showed a protein stability index of 0.642 ± 0.02. With KEELKKRRQEAK the figure was 0.677 ± 0.012. With KEFFGGSTDFRV the figure was 0.729 ± 0.18; with KEGKGRGDGGRE, 0.697 ± 0.018; with KEKGSRYKRALS, 0.679 ± 0.014. With KETQKKKQDKKK the figure was 0.703 ± 0.0091; with KFARHVLIQSHV, 0.559 ± 0.04. With KFKREKKKINKR, the protein stability index turned out to be 0.6938 ± 0.0023. With KFLISIWGGTRG the figure was 0.6118 ± 0.0025; with KGANISDCLSIF, 0.616 ± 0.018; with KGDAQASSDLTL, 0.691 ± 0.014.

In the case of KGDWGGRGCGRH, the protein stability index stood at 0.693 ± 0.021. With KGEKKNEEEERG the figure was 0.68 ± 0.01; with KGETRLTSARLI, 0.706 ± 0.028; with KGETSYTGIAVG, 0.667 ± 0.085.

For the sequence KGGGMWRCCVWR, the protein stability index stood at 0.685 ± 0.0089.

KGGREARRERRD displayed a protein stability index of 0.672 ± 0.036. The sequence KGKTARDVLLLV came in with a protein stability index of 0.58 ± 0.013. With KGQIVIDTKGGG the figure was 0.609 ± 0.053; with KGSWTLGDGLVW, 0.644 ± 0.013; with KHPLAPLRRPVI, 0.68 ± 0.0078. KHYKVDAVNIRG came in with a protein stability index of 0.686 ± 0.035. With KIDKKNKKKKRN the figure was 0.728 ± 0.023. Sequence KIDKKSKKKKEI came in with a protein stability index of 0.684 ± 0.017. With KIDKNILTNKEN the figure was 0.673 ± 0.056; with KIGYTISGFVIS, 0.707 ± 0.054. With KIIASVLYGVIG the figure was 0.61 ± 0.037; with KIINKKKKRKKN, 0.665 ± 0.023; with KIKDKKNKQKKH, 0.709 ± 0.034. With KIKKLKKRNKSY the figure was 0.612 ± 0.023. Sequence KIKNKYKEKKKK gave a protein stability index of 0.67 ± 0.0079. With KIKQKEITEKNR the figure was 0.638 ± 0.038; with KIRFGRCLRSSF, 0.746 ± 0.033.

As to KIRNLELNVQTN, the protein stability index was 0.688 ± 0.075.

Turning to KITKKNRSWKTS, the protein stability index turned out to be 0.623 ± 0.019. With KIYKKSKKKKEI the figure was 0.688 ± 0.061; with KKDFTTKSKEYR, 0.7125 ± 0.0026; with KKDRRGGGPGGG, 0.691 ± 0.03. With KKEEIIIGGKKI the figure was 0.663 ± 0.043; with KKEERTQKNEKK, 0.654 ± 0.011; with KKEKKKQKRNNN, 0.782 ± 0.013.
